Laboratory results as given in the DeepSol protein solubility set.

Assay: soluble on expression in E. coli; label from the status in PepcDB or PDB records

Sequence | soluble on expression in E. coli
MKNFEIVTVTPDHAEQLISMIHELAEFEKMKSSVVNTAEKLRKDIENKAVHGFIAFIGEEPAGMNLFYYAYSTWVGQYLHMEDLYIRPQFRRMGLARTLWKKLAELARDKGIVRLEWAVLDWNKNAIALYDTVDYVNLTKSEGWFTFRMDGAAINKFADE | not soluble
MKNLILVLGCFFFLISCQQTEKEKLEELVKNWNGKEVLFPTNPSFTLYGKTPVDFKIPVSDYKIVTYVDSLGCSSCKLQLPKWKEFMKYADSIVGYQIPVLFFLHPANVREMRSVLKQNRFDYPVCMDTEDTFNKVNKFPSQLNFQTFLLDKNNHVIAIGNPVHNYDVRELYIHLISGGIDGDSLSNMRTVIKIEEDMVDLGSFDWRREQHITFEIHNIGNNNLVVYDNKTSCGCTSVEYSKEPVQPGKSLAVKVTYKADHPEHFNKTIILYCNASASPLELKITGNAK | not soluble
MKNMNKYENCLLCPRKCGINRSTGQTGVCGVSSEIKVARAALHYWEEPCISGKRGSGAVFFSGCSLHCVFCQNREISDGKAGKVISKERLSDIFMELADKGANNINLVTPGQYIPDIVWAVNDAKSRGMKLPIIYNTSGYENVTELKLLEGIVDVYLPDFKYMDSTLSARYSRAKDYPSVAKQALSEMVRQQPDVVIDDATGLIQKGVIVRQLLLPGHVNDAKAVLKYLYDTYHDHVYISMMSQFTPIALKDYPEINRTVTRREYERLVDYALEIGITNAFIQEGDVAKDSFIPAFDCEGV | not soluble
MKNMTALSPSELPRLIDFLEQRNEFAVYAGRVHIHPVTRFCIYWLLLTMTRIREAALMEWSELDGEVWRIPAERKKERRGHDVPLSRAMRWVLDQARGLNVNGRFVFESVNFQGHINKESPHVAMRRSGLDTTAHGLRSLARTYLREVLKVYNDVAEKLLAHSLGLEHHHHHH | not soluble
MKNVGFIGWRGMVGSVLMDRMSQENDFENLNPVFFTTSQAGQKAPVFGGKDAGDLKSAFDIEELKKLDIIVTCQGGDYTNEVYPKLKATGWDGYWVDAASALRMKDDAIIVLDPVNQHVISEGLKKGIKTFVGGNCTVSLMLMAIGGLFEKDLVEWISVATYQAASGAGAKNMRELLSQMGLLEQAVSSELKDPASSILDIERKVTAKMRADNFPTDNFGAALGGSLIPWIDKLLPETGQTKEEWKGYAETNKILGLSDNPIPVDGLCVRIGALRCHSQAFTIKLKKDLPLEEIEQIIASHNEWVKVIPNDKEITLRELTPAKVTGTLSVPVGRLRKLAMGPEYLAAFTVGDQLLWGAAEPVRRILKQLVA | soluble
MKPFVPKLVYFEPEALSYPLGQELYEKFTQMGIEIRETTSHNQVRGIPGETELARYRNAKSTLVVGVRRTLKFDSSKPSAEYAIPLATGCMGHCHYCYLQTTLGSKPYIRVYVNLDDIFAQAQKYIDERAPEITRFEAACTSDIVGIDHLTHSLKKAIEFIGATDYGRLRFVTKYEHVDHLLDAKHNGKTRFRFSVNSRYVINHFEPGTSSFDARLQAARKVAGAGYKLGFVVAPIYRHDGWEQGYFELFQELARQLEGVDLSDLTFELIQHRFTKPAKRVIEQRYPKTKLDLDESKRKYKWGRYGIGKYVYRDKEARELEETMCSYIARFFPSAQVQYFT | not soluble
MKPLSWSEAFGKGAGRIQASTIRELLKLTQRPGILSFAGGLPAPELFPKEEAAEAAARILREKGEVALQYSPTEGYAPLRAFVAEWIGVRPEEVLITTGSQQALDLVGKVFLDEGSPVLLEAPSYMGAIQAFRLQGPRFLTVPAGEEGPDLDALEEVLKRERPRFLYLIPSFQNPTGGLTPLPARKRLLQMVMERGLVVVEDDAYRELYFGEARLPSLFELAREAGYPGVIYLGSFSKVLSPGLRVAFAVAHPEALQKLVQAKQGADLHTPMLNQMLVHELLKEGFSERLERVRRVYREKAQAMLHALDREVPKEVRYTRPKGGMFVWMELPKGLSAEGLFRRALEENVAFVPGGPFFANGGGENTLRLSYATLDREGIAEGVRRLGRALKGLLALV | soluble
MKPRIYVKVKPERLGAVIGPRGEVKAEIMRRTGTVITVDTENSMVIVEPEAEGIPPVNLMKAAEVVKAISLGFPPEKAFRLLEEDQILVVVDLKQVVGDSQNHLKRIKGRIIGEGGRARRTIEEMTDTYINVGEYEVAIIGDYERAMAAKQAIEMLAEGRMHSTVYRHLERIMREIKRRERLKMWAREEL | soluble
MKPTKARLRNHVITLKNSVEKEIRAKKTKAIRAHIESEWLKIDPEFEKLHRYFSSLRIRQNVKNELVDLLEENSLEIWSFYRDTDARDFETYKKGFLEKLKYNSIKGLAKVEAVYDQEIQEVRETYNAIIANVERVPAKQGVAYLEELGINVDVFKEEEAQLPMIAVDKSKLRLPSETADSK | not soluble
MKQFDKHADAYNVVRGKIAYPDSLYRNLAERAPAREAALDIGCGNGVSTVRLQPWFRYVEGSDLGEALIAKARENYPEIRFSVSPAETFAPQRRFDLVTSATSFYWMDRKQVLTRMADWLTPGGLFCAYKYDFPIAYGPLRDFIEHELVNKWAKHRDPRLTRYDDTLEIMGSCPHLRDCRREVFANIIFLSPEEVALFFLSTSYVTRYIEQEGGEDYADRFIAAVREIESAPQVAVNFDIHAFTALNR | not soluble
MKQKRSSSGLKKRIFSTFGKASEERPSLLLLDLPIDILLAITKQLDTETRMIVRKVSPAFRDIIDYQGSGVKTMKIGKDCITIDWKRIEYREGVHCSCLIIYQGHIKTKIYESPQSLMFQDLSILLKSPRIRLSWLDLAPISCTSYNWTGVDVNSIVKILEPIKSRHIERVYFQDINYAEVVLILQKFKAGFLREISLDSEQINGWSIPQIGGMVHLEQWKRAQHLKIHSFVNLDPLINHISHFHTIQLLCQSMSKLQMLKWKEIINTSKTLVKCVLRGNANFAGLARVFDPAFEQAYGNISYVSADEFNCTIRFMPENFCIMKLK | not soluble
MKQLWFAMSLVAASLFFSANASADPASGALLQQMNIASQSLNYELSFVSITKQGVESLRYRHARLDGRPLAQLLQLDGPRREVVQRGNEISYFEPGLEPFTLNGDYIVDSLPSLIYTDFKRLAPYYDFISVGRTRIADRLCEVIRVVARDGTRYSYIVWMDMDTKLPMRVDLLDRDGETLEQFRVIAFTVSQDIGSNMQALAKANLPPLLSVPGGEKTKFNWSPSWVPQGFSEVSSSRRPLPTMDNLPIESRLYSDGLFSFSVNVNRATQNSSDQMLRTGRRTVYSSVRDNAEITIVGELPPQTAKRIADSIKFRAVQ | not soluble
MKQSKIIVAGIGPGSEQDITPAVLAAVREADVVVGYKYYFRFIRDFVRPDAECIDTGMKRERARAEQAFEYAEQGKTVCVISSGDAGIYGMTPLIYEMKRERQSNVEIIALPGI | not soluble
MKQVSRSALVSFSAEQMFNLVNDVAKYPEFLPGCSGSRIIESSGNGMVASVDVAKAGISKTFTTSNELIPGQAIMMNLVDGPFKTLRGGWIFTALDEQACKVELKLEFEFSSKMIEMAFGKIFNELTSNMVNAFTKRAKQVYECYEYLEHHHHHH | not soluble
MKQVTVLLIGLGRMGSRFFDKFVEIGEERVKIVGVCELNEQNPKVLEAKKRNIPLYPSYKEALTDLHESVDIILDTSNISEVKRDIRELLSRQNNQHSVLLPMVADYLLWYMLPNAEEIPQDHTDIGY | not soluble
MKREILLERIDKLKQLMPWYVLEYYQSKLAVPYSFTTLYEYLKEYDRFFSWVLESGISNADKISDIPLSVLENMSKKDMESFILYLRERPLLNANTTKQGVSQTTINRTLSALSSLYKYLTEEVENDQGEPYFYRNVMKKVSTKKKKETLAARAENIKQKLFLGDETEGFLTYIDQEHPQQLSNRALSSFNKNKERDLAIIALLLASGVRLSEAVNLDLRDLNLKMMVIDVTRKGCKRDSVNVAAFAKPYLENYLAIRNQRYKTEKTDTALFLTLYRGVPNRIDASSVEKMVAKYSEDFKVRVTPHKLRHTLATRLYDATKSQVLVSHQLGHASTQVTDLYTHIVSDEQKNALDSL | not soluble
MKRILIVTGQSGSGKSSALQVLEDLGYYCIDNLPLALLPEIVAKLDHENNLEQLALGVDVRSTRADMQEFDLVFEQLQKHGTVDVIYLTTQDQELIARFSASRRPHPLASRFKSLNECIQEEKQLLLPIQFRSTVHIDTTDKSVHDLKHTLLSKLGQSDKLILILQSFGYKHGIPLDADYVFDVRHLPNPHWDLELRRFSGLDEPVRRFLESSDQTNEMFDDIFHFLDKWLPVFAEGHRHYMTVSIGCTGGQHRSVYIVDRLKKALEAKWSIQVLHREMKHWS | not soluble
MKRLWKKVGSGVKNANYLKKSVEEVAKIEKGETKVVPPKYPTEKSREVSEEIKKELAMKNESLVENMNKMYIKSTDPVERWTSTKDLPTRESEFLHRNDPIWEYGFYEPPVERIPKDKLMFKEALEYLRFRQELLSDSSSPAQKKQAAEFVADHVVTSRVNAETLDDIYEYFRPFERKDKQKVVNRHALAALQDHVQGNSDERRILDEAKDVGKKIRHISNNTKFLDEYQRLEDEEKDKVREAIAQLRQEEHERLNKRLGQLGEIEKTAQEAMKKAVEEKKEK | not soluble
MKRRRLLQSLLAGLALQPFLAASANVRIRQARAWNSSESWRLVLELDGPPRYRTFSLQAPERLILDLPDAQLLATLSELPLDGPVRAIRSGQLGGGGTRIVLDLRQAVRPRSFALEPQAGKGHRLVLDLYPQALAAPPEPMLALARPLPSTGRDILVVVDAGHGGKDPGAVGSKGEREKDVALAIARLLARRIDREKGFKARLVRNGDVFVPLRKRPEVARRYNADMFVSVHADAAPRLTASGASVYALSEHGASSTMARWMAERENGADLIGNSGNLPLQGRDKVLAGVILDMALSSTIASSLDLGHSVLGQLSDVTALHQKRVEQAGFAVLKSPDIPSILVETGFISNRGDCRRLMDERHRQRLAEAIFAGVQGYFRQRPPAGSYLAALSAQPPG | not soluble
MKSAELKYLDFEDFTKLIALAKEKINPIYSSSFMIYIAAMTGMRFSELLGLTWDNVDFEKGQIYVKRTWDIYKNNFAPTKNDQSVRFLAIDSSTMQVMINYKEQQEKLLKRLEIEPEHPFVFYNIKNGLITNNSLNKQLRNMCKKLGFKKIITCHGLRHTHASTMLYKGINILYVSKRLGHSSLNVTMSVYSHILKELEEKDNENIKKIFSEINDELEHHHHHH | soluble
MKSKFMIHQIFSNYCSKNTRLHTLLYKTFVRPILEYGTEVSSPLKKQDIKAIESVQNSFTRKLYSRQKGKYIRTDDPDYKSAIQRNELFNLSTLEARRKAIDKVFLSKMLVNKVDIDTDQFFKIDKNSKTRTKTKFIWGKCKTKLRRHFFTNRVLSSIKISAMNLILAPHVLCMFNTFTHYSSP | not soluble
MKSSMAMIKHKKELVEYARHLKLPNLAEHVGVILHEAQEKQLTYSEFLANCLAREIQGRERKSYLTRLKLSGLPAKYDLDLYDYDRAEGMDNRRLRELRELVWVNQAYNLLLVGPSGTGKTFIAAGLVYEAVKAGYEAYLMTLEELLTCLKTKEVSAHAMKTYKRIMKARLLAIDDATLFPLKREEAVLLFKLVNDFQERTSLIITANKALTRWLETLEDEAVTAALLDRLLYCCEIIRLGGTSYRMQNRKTIFSNQNTDIGTLEHHHHHH | not soluble
MKSVGLITEYNPFHNGHQYHINQSKKLTNADVTIAIMSGNFVMRGEPAIYNKFTRAKMALSTADLVIELPATASLSSGDHFAELAVKVADYMSVDTIAFGSENNDIKTLKQLAHSINEIEQSESFSQKVKEGKSYPRIISELLEHHEALASPNNILGISYLKAIAKNAKNINAISIKRENAQHHDSLIQHHQFASGTSIRTSIISQDDHWHHVVPKDIQHLYVTPHITLNQIFPYLKYQIIAMTTDSLKNIYTVTEGFENRLKSNIYEATDFHHFVKLLKTKRYTYTHIQRLLMNVLLNIKPTDVTSNIHAVKVLAMNDRGRQYLKHLKTAFPERQYITNINKSNAHYFTNEIKATHIYNAISGQQQTDFNTPVIQQYR | not soluble
